Laboratory results as given in paper PMC4148482.

Experiments:
[1] = target: His-tagged Hsp20 wild type (UniProt O14558); experiment: peptide array overlay (IB: His), spot densitometry; conditions: typical of n = 3; parent: est. 100; read off a plot
[2] = target: Aβ1–42 labelled at the N-terminus with HiLyte Fluor 555 (Aβ555) (human) (UniProt P05067)

Aβ1–42 25mer peptide 1 (D1–G25; array spot) A21
percent of parent (% Control (WT)) [1]: 110

Aβ1–42 25mer peptide 1 (D1–G25; array spot) A2
percent of parent (% Control (WT)) [1]: 77

Hsp20 N-terminal 25-mer peptide, S16D variant (in solution)
fold decrease in efficiency in disrupting the formation of Aβ555 fibrils and globular structures (self-quenching), against full-length S16D [2]: 2 fold
